{
  "source": "patent US20260007756A1",
  "about": "“COMPOUND AND USE THEREOF” (COHERENT BIOPHARMA (SUZHOU) LIMITED, priority 2022, published 2026)",
  "key": {"LNCaP [1]": {"tested_on": "LNCaP", "test": "Expansion inhibition of tumor cells (Example 10, CCK-8)", "type": "cell-based", "conditions": "Homo sapiens, LNCap (PSMA overexpression), 72 h", "experimental": "Samples were serially diluted with medium (serially 5-fold diluted from 10 μM) to 9 concentrations. […] Negative and blank controls were set.\n(§1) A CCK-8 developing solution was added at 10 μL/well (10% of the liquid volume in the wells). The plates were incubated at 37° C. for a proper time (the OD value was controlled within the range of 1.0-2.5 as possible). The plate covers were removed, and the 96-well plates were loaded on a microplate reader (Molecular Devices SpectraMax iD5) to read the measurement at 450 nm."}, "Solubility study in PBS": {"test": "Solubility study in PBS", "type": "physicochemical", "conditions": "aqueous buffer, thermodynamic from solid; PBS (pH 7.2 to 7.4); read-out: Solubility, concentration", "experimental": "The mixture was vortexed for 2 min until the solid was dissolved. The solubility was calculated as: C=m/V, C: concentration, m: sample weight, V: PBS total volume."}, "Plasma stability study 1": {"test": "Plasma stability study 1", "type": "in vitro ADME", "conditions": "mouse plasma, 37° C.", "experimental": "Procedures: The conjugate compounds were dissolved in acetonitrile-water (1:1) or acetonitrile-water (1:1, containing 0.1% TFA) to prepare 1 mg/mL stock solutions; 10 μL of the 1 mg/mL stock solution was added to 90 μL of plasma, and the mixture was gently mixed well. The plasma drug samples were shaken and incubated in a 37° C. thermostat for 0, 0.5, 1, 2, 4, 6, or 24 h; at the time points, the samples were taken out and 300 μL of methanol solution (containing 10 ng/ml of terfenadine) was added for protein precipitation; the mixture was centrifuged (12 min, 4° C., 12000 rpm) and the supernatant was collected, and preserved in a −80° C. refrigerator; after collection, the samples were loaded for LC-MS analysis."}, "22RV1": {"tested_on": "22RV1", "conditions": "22RV1 (PSMA overexpression), 72 h, CCK-8", "experimental": "(§2) Major reagents: 1640 folic acid-free medium, fetal bovine serum, penicillin-streptomycin solution, L-glutamine, and CCK8.\n(§3) Cells were prepared in advance, trypsinized, collected, counted, diluted to 2×10^4 cells/mL in a complete cell culture medium, and plated in 96-well plates. The diluted cell suspension was added at 100 μL/well, and negative and blank control wells were set on each plate. The 96-well plates with the added cells were incubated overnight at 37° C. in a 5% CO2 incubator.\n(§4) Samples were serially diluted with medium (serially 5-fold diluted from 10 μM) to 9 concentrations. The medium in the plates was discarded, and the drug solutions were added at 100 μL per well to a 96-well plate in triplicate. Negative and blank controls were set. The plates were incubated at 37° C. for 72 h in a 5% CO2 incubator.\nas §1\n(§5) Four-parameter curves were fitted using GraphPad Prism 8.0.2 to give IC50 values."}, "293T-PSMA": {"tested_on": "293T-PSMA", "conditions": "72 h, CCK-8", "experimental": "as §2, §3, §4, §1, §5"}, "C4-2": {"tested_on": "C4-2", "conditions": "C4-2 (PSMA overexpression), 72 h, CCK-8", "experimental": "as §2, §3, §4, §1, §5"}, "LNCaP [2]": {"tested_on": "LNCaP", "conditions": "LNCap (PSMA overexpression), 72 h, CCK-8", "experimental": "as §2, §3, §4, §1, §5"}, "MDA-MB-231-FOLR1": {"tested_on": "MDA-MB-231-FOLR1", "conditions": "MDA-MB-231-FOLR1, 72 h, CCK-8", "experimental": "as §2, §3, §4, §1, §5"}, "MDA-MB-231-PSMA": {"tested_on": "MDA-MB-231-PSMA", "conditions": "72 h, CCK-8", "experimental": "as §2, §3, §4, §1, §5"}, "[3]": {"tested_on": "human prostate cancer 22RV1 cell subcutaneous xenograft tumor", "test": "Pharmacodynamic assessment, 22RV1 xenograft model", "type": "in vivo", "text": "Objective: Pre-clinical pharmacodynamic study of compounds for treating BALB/c nude mouse model with 22RV1 cell subcutaneous xenograft tumor (overexpressing PSMA).\nProcedures: 22RV1 tumor mass was grafted subcutaneously at the right back of the mice, and the mice were randomized after the mean tumor volume was 150 mm^3. After administration, the animals were monitored daily for health conditions and death, and the routine examinations included observation of the effect on tumor growth and the effect of the treatment on the daily performance of the animals, such as behavioral activities, food and water intake, weight changes (measured once every other day), appearance, or other abnormal conditions. Whether the tumor growth was inhibited or delayed or the tumor was cured was also observed. The tumor volume was measured periodically. The tumor volume was calculated using the following formula: V=1/2×(a×b^2), where a and b denote the long diameter and short diameter of the tumor, respectively."}, "[4]": {"tested_on": "human prostate cancer C4-2 cell subcutaneous xenograft tumor", "test": "Pharmacodynamic assessment, C4-2 xenograft model", "type": "in vivo, NCG mouse", "conditions": "12.5 mg/kg i.v biw×3, day 23 after grouping", "text": "Objective: Pre-clinical assessment of the efficacy of compounds for treating NCG mouse model with C4-2 cell subcutaneous xenograft tumor (overexpressing PSMA).\nProcedures: C4-2 cells were subcutaneously grafted at the right back of the mice, and the mice were randomized when the mean tumor volume reached 100-150 mm^3. After the administration, the routine monitoring included the effect on tumor growth and the effect of treatment on the normal behavior of the animals, specifically the activity, food and water intake, weight gain or loss, the eyes, the hair, and other abnormal conditions. Clinical symptoms observed during the study were recorded in the raw data. After the administration was started, the body weight and tumor size of the mice were measured periodically. The tumor volume was calculated using the following formula: V=1/2×(a×b^2), where a and b denote the long diameter and short diameter of the tumor, respectively."}, "cathepsin B-human liver": {"molecular_target": "cathepsin B-human liver (Homo sapiens, UniProt P07858)", "test": "Cathepsin B cleavage study (HPLC)", "type": "in vitro ADME", "set-up": "cathepsin B-human liver (source: Sigma); purchased Sigma; host or cells: human liver (tissue-derived, as the product name says)", "conditions": "37° C.", "experimental": "Procedures: The conjugate compounds were dissolved in acetonitrile-water (1:1, containing 0.1% TFA) to prepare 1 mg/mL stock solutions; 30 μL of the 1 mg/mL stock solution was added to 570 μL of 50 mM NaOAc (containing 1 mM EDTA and 10 mM cysteine), and the mixture was mixed well; 7 μL of cathepsin B (0.05 U/μL) was added, and the mixture was gently mixed evenly; the reaction system was transferred into a 37° C. thermostat for 0, 1, 2, 4, or 8 h of incubation; samples were taken at each time point for HPLC analysis."}, "[5]": {"conditions": "12.5 mg/kg iv biw×3, day 31 after grouping"}},
  "note": "Like-named read-outs stand apart in the source and are kept apart here.",
  "data": [
    {"smiles": "Cc1ncsc1-c1ccc(CNC(=O)C2CC(O)CN2C(=O)C(NC(=O)COCC(=O)NC2(C(=O)NCCCn3cc(-c4ccc(OC(F)(F)F)cc4)c4cc(CN5CCN(Cc6c(Cl)cccc6Cl)CC5)ccc43)CCNCC2)C(C)(C)C)cc1", "note": "(stereo not shown) [CR202CC]", "values": [
      {"measurement": "IC50", "setting": "LNCaP [1]", "result": 0.0003, "unit": "µM"}
    ]},
    {"smiles": "CC[C@@H]1C(=O)N(C)c2cnc(Nc3ccc(-c4cn(C5CCC(N(CCOCCC#Cc6cccc7c6CN(C6CCC(=O)NC6=O)C7=O)C(=O)OCc6ccc(NC(=O)[C@H](CCCNC(N)=O)NC(=O)[C@H](Cc7ccccc7)NC(=O)CCCCCN7C(=O)CC(SC[C@H](NC(=O)[C@H](CCCCN)NC(=O)[C@H](CC(=O)O)NC(=O)[C@H](CC(=O)O)NC(=O)Cc8ccc(CNC(=O)NCCCC[C@H](NC(=O)N[C@@H](CCC(=O)O)C(=O)O)C(=O)O)cc8)C(=O)N[C@@H](CCCCNC(=O)CC[C@H](NC(=O)c8ccc(NCc9cnc%10[nH]c(N)nc(=O)c%10n9)cc8)C(=O)O)C(N)=O)C7=O)cc6)CC5)nn4)cc3OC)nc2N1C1CCCC1", "note": "(stereo partly shown) [CR20293]", "values": [
      {"measurement": "solubility at 2 min", "setting": "Solubility study in PBS", "result": 20.6, "unit": "mg/mL"},
      {"measurement": "CR20274 release rate of compounds in plasma stability study", "setting": "Plasma stability study 1; 0 h", "result": 0.00, "unit": "%"},
      {"measurement": "Principal component residue of compounds in plasma stability study", "setting": "Plasma stability study 1; 0 h", "result": 83.13, "unit": "%"},
      {"measurement": "CR20274 release rate of compounds in plasma stability study", "setting": "Plasma stability study 1; 0.5 h", "result": 0.17, "unit": "%"},
      {"measurement": "remaining at 0.5 h, 100 μg/mL", "setting": "Plasma stability study 1; 0.5 h, read-out: Principal component residue of compounds in plasma stability study", "result": 75.6, "unit": "%"},
      {"measurement": "CR20274 release rate of compounds in plasma stability study", "setting": "Plasma stability study 1; 1 h", "result": 0.32, "unit": "%"},
      {"measurement": "remaining at 1 h, 100 μg/mL", "setting": "Plasma stability study 1; 1 h, read-out: Principal component residue of compounds in plasma stability study", "result": 75.8, "unit": "%"},
      {"measurement": "CR20274 release rate of compounds in plasma stability study", "setting": "Plasma stability study 1; 2 h", "result": 0.52, "unit": "%"},
      {"measurement": "remaining at 2 h, 100 μg/mL", "setting": "Plasma stability study 1; 2 h, read-out: Principal component residue of compounds in plasma stability study", "result": 67.8, "unit": "%"},
      {"measurement": "CR20274 release rate of compounds in plasma stability study", "setting": "Plasma stability study 1; 4 h", "result": 0.67, "unit": "%"},
      {"measurement": "remaining at 4 h, 100 μg/mL", "setting": "Plasma stability study 1; 4 h, read-out: Principal component residue of compounds in plasma stability study", "result": 69.8, "unit": "%"},
      {"measurement": "CR20274 release rate of compounds in plasma stability study", "setting": "Plasma stability study 1; 6 h", "result": 0.95, "unit": "%"},
      {"measurement": "remaining at 6 h, 100 μg/mL", "setting": "Plasma stability study 1; 6 h, read-out: Principal component residue of compounds in plasma stability study", "result": 70.5, "unit": "%"},
      {"measurement": "CR20274 release rate of compounds in plasma stability study", "setting": "Plasma stability study 1; 24 h", "result": 3.38, "unit": "%"},
      {"measurement": "remaining at 24 h, 100 μg/mL", "setting": "Plasma stability study 1; 24 h, read-out: Principal component residue of compounds in plasma stability study", "result": 45.4, "unit": "%"},
      {"measurement": "IC50", "setting": "22RV1", "result": 0.0164, "unit": "µM"},
      {"measurement": "IC50", "setting": "293T-PSMA", "result": 3.27, "unit": "µM"},
      {"measurement": "IC50", "setting": "C4-2", "result": 0.078, "unit": "µM"},
      {"measurement": "IC50", "setting": "LNCaP [2]", "result": 0.0379, "unit": "µM"},
      {"measurement": "IC50", "setting": "MDA-MB-231-FOLR1", "result": 0.0942, "unit": "µM"},
      {"measurement": "IC50", "setting": "MDA-MB-231-PSMA", "result": 0.0706, "unit": "µM"},
      {"measurement": "Mean tumor volume", "setting": "[3]; [5]", "result": 46.32, "unit": "mm^3"},
      {"measurement": "TGI", "setting": "[3]; [5]", "result": 97.51, "unit": "%"},
      {"measurement": "Tolerability (body weight, death)", "setting": "[3]; tumor-bearing BALB/c nude mice, during the study", "result": "well tolerated"},
      {"measurement": "Mean tumor volume", "setting": "[4]", "result": 778.70, "unit": "mm^3"},
      {"measurement": "TGI", "setting": "[4]", "result": 55.47, "unit": "%"},
      {"measurement": "CR20274 release rate of conjugate compounds after cleavage", "setting": "cathepsin B-human liver; 0 h", "result": 0, "unit": "%"},
      {"measurement": "Principal component residue of conjugate compounds after cleavage", "setting": "cathepsin B-human liver; 0 h", "result": 100, "unit": "%"},
      {"measurement": "CR20274 release rate of conjugate compounds after cleavage", "setting": "cathepsin B-human liver; 1 h", "result": 17, "unit": "%"},
      {"measurement": "Principal component residue of conjugate compounds after cleavage", "setting": "cathepsin B-human liver; 1 h", "result": 76, "unit": "%"},
      {"measurement": "CR20274 release rate of conjugate compounds after cleavage", "setting": "cathepsin B-human liver; 2 h", "result": 38, "unit": "%"},
      {"measurement": "Principal component residue of conjugate compounds after cleavage", "setting": "cathepsin B-human liver; 2 h", "result": 46, "unit": "%"},
      {"measurement": "CR20274 release rate of conjugate compounds after cleavage", "setting": "cathepsin B-human liver; 4 h", "result": 59, "unit": "%"},
      {"measurement": "Principal component residue of conjugate compounds after cleavage", "setting": "cathepsin B-human liver; 4 h", "result": 27, "unit": "%"},
      {"measurement": "CR20274 release rate of conjugate compounds after cleavage", "setting": "cathepsin B-human liver; 8 h", "result": 64, "unit": "%"},
      {"measurement": "Principal component residue of conjugate compounds after cleavage", "setting": "cathepsin B-human liver; 8 h", "result": 7, "unit": "%"}
    ]}
  ]
}
